One molecule from publication PMC3405546 (Circulation Research, 2012) can be followed below.

A word on the stoichiometry N: it is a count of units in the complex or per binding partner.

The target in series [1] is glutathione s-transferase (GST) tagged cyclin E (human, UniProt P24864 1-410). The series is described as follows: cross-linking.
Series [2] concerns the molecule itself. The experiment in a line: cross-linking.

Chain of glutathione s-transferase (GST) tagged cyclin E (P24864 whole entry): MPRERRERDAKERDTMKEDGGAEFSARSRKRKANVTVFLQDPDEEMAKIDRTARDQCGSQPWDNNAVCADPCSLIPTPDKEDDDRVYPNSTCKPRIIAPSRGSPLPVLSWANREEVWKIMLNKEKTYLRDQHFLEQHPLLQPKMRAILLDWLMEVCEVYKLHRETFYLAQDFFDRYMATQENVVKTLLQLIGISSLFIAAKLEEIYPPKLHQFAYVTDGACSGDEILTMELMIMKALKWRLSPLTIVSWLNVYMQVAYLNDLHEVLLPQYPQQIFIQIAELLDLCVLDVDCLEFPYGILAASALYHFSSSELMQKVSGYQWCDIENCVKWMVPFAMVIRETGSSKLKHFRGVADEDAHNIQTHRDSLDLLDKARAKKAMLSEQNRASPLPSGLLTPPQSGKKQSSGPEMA

B1: Cx43^CTMK4D (Cx43 C-terminus, phospho-mimetic Ser>Asp), purified (domain or fragment, rat, UniProt P08050 236-382, looked up)
chain: VKDRVKGRSDPYHATTGPLDPSKDCGDPKYAYFNGCSSPTAPLDPMDPPGYKLVTGDRNNSSCRNYNKQASEQNWANYSAEQNRMGQAGSTISNSHAQPFDFPDDNQNAKKVAAGHELQPLAIVDQRPSSRASSRASSRPRPDDLEI
In the case of B1, the “stoichiometry N” value is 2 Cx43^CTMK4D per cyclin E in series [1] and 2 in series [2].
